# Experimental data as given in patent US20200308591A1, “PROMOTER REGION ANALYSIS METHODS AND CELLS FOR PRACTICING SAME” (Eurofins DiscoverX Corporation, priority 2019, published 2020).
# Read-outs that look alike come from different tables or passages of the source.
# Legend:
# [1] = target: human T-cell receptor CD3 subunit on Jurkat cells (human) (UniProt P07766); test: cell-based or functional assay
# NFAT signaling pathways = test: U2OS NFAT EFC reporter assay, PMA/ionomycin stimulation; format: cell-based; details: 5,000 cells, stimulated 20h, components given together as cocktail, read-out: potency of the cocktail expressed as component concentration
# Description: NFAT EFC Reporter construct includes a promoter with 4 tandemly repeated (4×) NFAT transcription factor binding response elements, each having the sequence: […] (SEQ ID NO:5).
# Cells were stimulated for 20h followed by detection by PathHunter® FLASH detection reagent (+Enzyme Acceptor (EA)) with cell lysis for 1h. 5K and 10K refers to the number of cells plated in each well of a 384 well plate. S/B is signal (top) over background (bottom) of the assay response curve.
# A “cell stimulation” cocktail of phorbol 12-myristate 13-acetate (PMA) and ionomycin is known to activate “NFAT signaling pathways” and the NFAT transcription factor. […] Inhibition could be detected as decreases in relative light units (RLUs) with test compounds in the presence of stimulating doses of cell stimulation cocktail or other activating ligands.
# IL2 promoter = test: Jurkat IL2-promoter EFC reporter assay; format: cell-based; details: 5K cells, stimulated 16h; ionomycin via NFAT, PMA via AP-1 response elements
# Description: FIG. 9. Plasmid map for IL2-Promoter-EFC Reporter Plasmid. In this reporter construct, the complete endogenous IL2 gene promoter (“IL2prom”), which contains multiple specific transcription factor binding sites is fused upstream of and drives expression of carrier protein-ePL which is fused to a carrier protein. Contained within the IL2 promoter are binding sites for NFAT (1), NFkB (2), OCT (3), ARRE-2 (4) and NFAT/API (6) transcription factors and the IL2 minimal promoter (7). The DNA sequence of the IL2 promoter used is gtac[…]gctag (SEQ ID NO: 11) and is comprised of 8 different transcription factor binding sites and an IL-2 core promoter as described by Weaver et. al. (Molecular Immunology, 6 Mar. 2007, 44(11):2813-2819). The following 8 DNA elements […] (SEQ ID NO: 12), […] (SEQ ID NO:13), […] (SEQ ID NO:14), […] (SEQ ID NO:15), […] (SEQ ID NO:16), […] […]
# FIG. 10. […] 5K Jurkat IL2 promoter reporter cells were plated in wells of 384 well plate and stimulated for 16h with either […] (squares) or […]+CD28 antibody (circles) at 37′C prior to adding FLASH detection reagent (+5×EA) with cell lysis (and reading EFC luminescence). […]
# FIG. 11. […] 5K cells were plated in wells of 384 well plate and stimulated for 16h prior to adding FLASH detection reagent (+5×EA) with cell lysis (and reading luminescence). S/B is calculated by taking the RLU (with PMA/ionomycin)/RLU (without PMA/ionomycin).
# [2] = target: endogenous IL-6 receptor in HepG2 cells (UniProt P08887); test: cell-based or functional assay
# TNFα = TNFα (Homo sapiens, UniProt P01375); test: U2OS NFkB EFC reporter assay, inhibition of TNFα-stimulated NF-κB signaling; format: cell-based
# TNFα, sequence (P01375 77-233 limits assumed): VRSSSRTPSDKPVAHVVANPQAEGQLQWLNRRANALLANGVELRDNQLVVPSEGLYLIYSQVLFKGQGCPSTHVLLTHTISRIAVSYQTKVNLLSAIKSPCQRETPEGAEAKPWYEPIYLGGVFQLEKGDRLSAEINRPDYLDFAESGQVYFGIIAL
# Description: FIG. 5. Screening of inhibitors using U2OS NFkB EFC reporter cell-based assay. U2OS NFkB EFC reporter cells were treated with 2 nM TNFα (agonist) with or without various concentrations (and 3 lots) of anti-TNFα inhibitor adalimumab. In this example, the 3 lots of Humira tested were all derived from lot #1047318 run through a forced degradation protocol to simulate decreased specific activity or loss of activity where samples were non-stressed (e.g. the control), stressed 70° C. for 15 min and stressed 70° C. for 30 min.
# U2OS NF-κB EFC Reporter cells can also be used to measure inhibition and study inhibitors of NF-κB signaling. […] The dose-dependence of this inhibitory response allowed measurement of the potency of different lots of adalimumab. […] Note that forced degradation is a method used in development of assay for biologics (protein therapeutics) to simulate lots with different potency, e.g. for QC/lot release assays, or loss of potency from various causes. […] The stability of Humira® over time can also be studied using this assay. It can be seen that two lots of Humira® stored at 4° C.
# FIG. 6. […] The stability of expired lot #1017235 was also equivalent to that of lot #1047318 in the forced degradation experiment shown in FIG. 5.
# [3] = target: CD40 receptor, endogenous in U2OS NFκB EFC reporter cells (UniProt P25942); test: cell-based or functional assay
# CD40 receptor, endogenous in U2OS NFκB EFC reporter cells, sequence (P25942 21-277 limits assumed): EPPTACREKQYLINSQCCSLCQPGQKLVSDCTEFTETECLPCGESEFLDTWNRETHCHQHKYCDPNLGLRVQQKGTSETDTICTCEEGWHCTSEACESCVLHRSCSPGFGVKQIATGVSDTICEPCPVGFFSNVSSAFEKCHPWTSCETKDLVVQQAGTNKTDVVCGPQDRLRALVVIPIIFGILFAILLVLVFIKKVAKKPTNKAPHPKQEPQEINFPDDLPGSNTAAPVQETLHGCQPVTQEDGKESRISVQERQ
# IL-6 receptor = target: T1, IL-6 receptor (Homo sapiens, UniProt P08887); test: HepG2 STAT3 pathway reporter cell line (Example 9); format: cell-based; details: 5000 cells/well; 16 h at 37 °C
# T1 construct: uses endogenous IL-6 receptor in HepG2 cells to detect IL-6 signaling; endogenous in cells; host or cells: HepG2
# T1 sequence (P08887 20-468): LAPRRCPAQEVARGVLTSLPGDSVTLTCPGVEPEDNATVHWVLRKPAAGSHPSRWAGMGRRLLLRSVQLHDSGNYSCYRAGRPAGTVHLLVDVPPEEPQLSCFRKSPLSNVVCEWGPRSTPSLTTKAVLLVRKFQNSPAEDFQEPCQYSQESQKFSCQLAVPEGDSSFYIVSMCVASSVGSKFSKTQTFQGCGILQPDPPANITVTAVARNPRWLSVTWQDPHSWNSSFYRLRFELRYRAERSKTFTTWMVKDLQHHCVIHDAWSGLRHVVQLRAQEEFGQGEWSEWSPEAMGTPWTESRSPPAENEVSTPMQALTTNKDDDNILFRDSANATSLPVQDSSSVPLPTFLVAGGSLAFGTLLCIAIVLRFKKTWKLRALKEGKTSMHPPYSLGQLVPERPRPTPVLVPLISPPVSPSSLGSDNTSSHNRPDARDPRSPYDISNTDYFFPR
# T1 sequence (P40189 23-918 partner): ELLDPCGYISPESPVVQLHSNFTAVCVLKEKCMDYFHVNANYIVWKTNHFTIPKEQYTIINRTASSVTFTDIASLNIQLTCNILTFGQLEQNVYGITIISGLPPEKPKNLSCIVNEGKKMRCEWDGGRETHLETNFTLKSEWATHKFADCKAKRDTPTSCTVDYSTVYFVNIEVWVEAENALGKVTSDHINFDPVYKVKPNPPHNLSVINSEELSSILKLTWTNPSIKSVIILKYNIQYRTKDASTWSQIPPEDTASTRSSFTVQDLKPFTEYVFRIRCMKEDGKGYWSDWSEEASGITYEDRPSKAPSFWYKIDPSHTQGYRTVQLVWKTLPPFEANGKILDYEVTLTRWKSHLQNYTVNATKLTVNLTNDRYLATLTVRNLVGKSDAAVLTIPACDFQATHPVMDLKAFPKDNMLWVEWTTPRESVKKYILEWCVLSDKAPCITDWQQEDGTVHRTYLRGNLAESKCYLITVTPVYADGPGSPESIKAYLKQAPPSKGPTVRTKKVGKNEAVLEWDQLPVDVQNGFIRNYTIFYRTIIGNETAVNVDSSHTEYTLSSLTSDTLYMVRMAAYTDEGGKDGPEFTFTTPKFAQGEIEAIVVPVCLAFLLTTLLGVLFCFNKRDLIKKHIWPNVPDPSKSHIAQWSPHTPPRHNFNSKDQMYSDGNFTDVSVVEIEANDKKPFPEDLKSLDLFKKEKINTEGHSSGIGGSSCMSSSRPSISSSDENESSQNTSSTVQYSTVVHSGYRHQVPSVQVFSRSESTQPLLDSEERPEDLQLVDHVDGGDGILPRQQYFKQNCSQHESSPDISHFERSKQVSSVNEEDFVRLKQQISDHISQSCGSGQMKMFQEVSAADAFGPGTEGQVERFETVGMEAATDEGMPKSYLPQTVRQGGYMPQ
# Description: A reporter cell line was engineered to express an Enzyme Donor (ED) tagged carrier protein controlled by a pathway-inducible transcriptional response element. Pathway activation results in induced expressions of the ED-tagged protein. Addition of exogenous Enzyme Acceptor (EA), and buffer, lyses the cell and forces complementation of the ED and EA enzyme fragments.
# In this example, the cell line is a STAT3 (signal transducer and activator of transcription 3) pathway reporter cell line. The cells are HepG2 cells that include a nucleic acid encoding a β-galactosidase donor fragment (ED) having the amino acid sequence […] (SEQ ID NO:30) operably coupled to a promoter region comprising a STAT3 response element.
# Cells were plated in a 96-well plate and incubated at 37° C. and 5% CO2 to allow the cells to attach and grow. Cells were then stimulated with a control agonist (here, IL-6), using the assay conditions described below. Following stimulation, signal was detected using the PathHunter® ProLabel®/ProLink™ Detection Kit (Eurofins DiscoverX Corporation) according to the recommended protocol.
# Cell line for HepG2 STAT3 assay uses endogenous IL-6 receptor in HepG2 cells to detect IL-6 signaling.
# CD40 ligand (CD40L), sequence (P29965 113-261 limits assumed): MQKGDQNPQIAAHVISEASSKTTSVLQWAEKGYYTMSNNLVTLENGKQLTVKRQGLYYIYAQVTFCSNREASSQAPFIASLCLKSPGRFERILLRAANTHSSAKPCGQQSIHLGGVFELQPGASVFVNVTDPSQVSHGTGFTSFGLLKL
# IL-6, sequence (P05231 30-212 limits assumed): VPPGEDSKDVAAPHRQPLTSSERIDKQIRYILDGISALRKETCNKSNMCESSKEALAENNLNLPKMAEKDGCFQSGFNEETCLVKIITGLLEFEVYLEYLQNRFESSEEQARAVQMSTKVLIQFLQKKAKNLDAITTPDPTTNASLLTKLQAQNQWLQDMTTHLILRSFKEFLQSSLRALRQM
compound,measurement,setting,value
OKT3 ligand expressed and presented on the surface of CHO-K1 cells (scFv),"EC50 of stimulating OKT3 cells, Jurkat NFAT EFC reporter co-culture assay",[1],700 cells
C[C@H](CCC(=O)O)C[C@H](C)C[C@H](C)C(=O)/C=C(\O)[C@H](C)C[C@H](C)C/C=C/[C@@H](C)[C@@H](O)[C@@H](C)[C@@H](O)C[C@@H]1CC[C@@](C)([C@H]2CC[C@@](C)([C@@H](C)O)O2)O1 [ionomycin],EC50,"NFAT signaling pathways; Homo sapiens, U2OS",63 nM
same,activation of elements in the IL2-promoter EFC reporter construct,IL2 promoter,increase the activation
"CCCCCCCCCCCCCC(=O)O[C@@H]1[C@@H](C)[C@@]2(O)[C@@H](C=C(CO)C[C@]3(O)C(=O)C(C)=C[C@@H]23)[C@@H]2C(C)(C)[C@]12OC(C)=O [PMA, phorbol 12-myristate 13-acetate]",EC50,NFAT signaling pathways,3.8 nM
same,activation of elements in the IL2-promoter EFC reporter construct,IL2 promoter,increase the activation
IL-6 (from UniProt P05231 30-212) (ligand),"EC50 for control agonist stimulation, HepG2 STAT3 pathway reporter cell line",[2],0.601 ng/mL
same,"signal:background ratio at agonist EMAX, HepG2 STAT3 pathway reporter cell line",[2],21.3
adalimumab,inhibition of TNFα-stimulated NF-κB signaling,TNFα; 2 nM TNFα (agonist),can inhibit
same,change of inhibitory potency after forced degradation,"TNFα; samples subjected to forced degradation for 0, 15 or 30 min at 70° C.",graded loss of potency (right shift)
CD40 ligand (CD40L) (from UniProt P29965 113-261),"EC50 for control agonist stimulation, U2OS NF-κB pathway reporter cell line (Example 12)",[3],0.0886 µg/mL
same,"EC50 for control agonist stimulation, U2OS NFκB pathway reporter cell line (Example 7)",[3],225 ng/mL
same,"signal:background ratio at agonist EMAX, U2OS NFκB pathway reporter cell line (Example 7)",[3],26.3
same,"signal:background ratio, U2OS NF-κB pathway reporter cell line (Example 12)",[3],103
IL-6: control agonist signalling through endogenous IL-6 receptor in HepG2 cells,EC50 for control agonist stimulation,IL-6 receptor,0.601 ng/mL
same,signal:background ratio at agonist EMAX,IL-6 receptor,21.3
anti-CD3 antibody [OKT3],"EC50 for control agonist stimulation, Jurkat NFAT pathway reporter cell line (Example 8, plate-coated antibody)",[1],302 ng/mL
same,"signal:background ratio at agonist EMAX, Jurkat NFAT pathway reporter cell line (Example 8)",[1],7.6
